These binders were tested against T1, purified recombinant human VEGF165 (human, UniProt P15692 27-191, glycosylated) (assay: SPR (BIAcore), purified scFv over VEGF immobilized on CM5 chip, 25 C).
T1 construct: mature; Bought from Calbiochem; also called VEGF protein (Calbiochem); homodimeric VEGF protein
Procedure: (§1) Antibody fragments in the format of single chain were expressed as described below and purified. The measurement was done by measuring the change of SPR units (y-axis) vs time (x-axis) when a purified antibody binds its antigen (VEGF) immobilized on the CM5 biochip at 25° C. Kd values were calculated by the […].
(§2) BIAcore Biosensor Assay was used to determine antibody affinity. VEGF protein (purchased from Calbiochem) was coupled to a CM-5 biosensor ship by amine coupling. After immobilization, CM-5 chips with 200 to 1000 response unites of VEGF were kept at 4° C. before use. All experiments were performed at 25° C. or 35° C. Each sample in PBS buffer was injected over VEGF surface at a flow rate of 20 ul/min using Biacore 1000 (Biacore AB, Sweden), and bound antibodies were removed from chip by 10 ul of glycine-HCl, PH 1.5 at the end of each cycle. Each sensorgram was recorded and normalized to a PBS base line.

T1 sequence (P15692 other isoform, or with tags, fused parts or gaps limits assumed): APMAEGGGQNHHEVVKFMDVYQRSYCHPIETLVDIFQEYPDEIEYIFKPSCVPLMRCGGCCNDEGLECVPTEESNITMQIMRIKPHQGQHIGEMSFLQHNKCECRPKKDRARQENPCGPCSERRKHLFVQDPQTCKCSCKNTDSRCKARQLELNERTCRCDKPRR

Kd [nM]	hAB1 Kd/Variant Kd	koff [s⁻¹]	kon [M⁻¹ s⁻¹]	Binder
5.9	2.2	7.2e-05	12200	hAB5 (scFv, Single chain format; not shown: HA-His6 tag at C-terminus) scFv: EVQLVQSGGGVVQPGGTLRLTCAASGYTFTNYGMNWVRQAPGKGLEWVGWINTYTGEPTYAADFKRRVTFSLDTSKSTAYLQMNSLRAEDTAVYYCAKYPHYYGSSHWYFDVWGQGTLVTVSSGGGGSGGGGSGGGGSDIQMTQSPSSLSASVGDRVTITCSASQDISNYLNWYQQKPGKAPKVLIYFTSSLHSGVPSRFSGSGSGTDFTLTISSLQPEDFATYYCQQYSTVPWTFGQGTKVEIK
2.2	6.3	3e-06	1100	hAB10 (scFv, Single chain format; not shown: HA-His6 tag at C-terminus) scFv: EVQLVESGGGLVQPGGSLRLSCAASGYTFTNYGMNWVRQAPGKGLEWVGWINTYTGEPTYAADFKRRFTFSLDTSKSTAYLQMNSLRAEDTAVYYCAKYPYYYGTSHWYFDVWGQGTLVTVSSGGGGSGGGGSGGGGSDIQMTQSPSSLSASVGDRVTITCSASQDISNYLNWYQQKPGKAPKVLIYFTSSLHSGVPSRFSGSGSGTDFTLTISSLQPEDFATYYCQQYSTVPWTFGQGTKVEIK
1.5	9.2	3e-06	2300	hAB12 (scFv, Single chain format; not shown: HA-His6 tag at C-terminus) scFv: EVQLVESGGGLVQPGGSLRLSCAASGYTFTNYGMNWVRQAPGKGLEWVGWINTYTGEPTYAADFKRRFTFSLDTSKSTAYLQMNSLRAEDTAVYYCAKYPYYYGRSHWYFDVWGQGTLVTVSSGGGGSGGGGSGGGGSDIQMTQSPSSLSASVGDRVTITCSASQDISNYLNWYQQKPGKAPKVLIYFTSSLHSGVPSRFSGSGSGTDFTLTISSLQPEDFATYYCQQYSTVPWTFGQGTKVEIK
5.4	2.6	8.7e-05	15900	hAB11 (scFv, Single chain format; not shown: HA-His6 tag at C-terminus) scFv: EVQLVESGGGLVQPGGSLRLSCAASGYTFTNYGMNWVRQAPGKGLEWVGWINTYTGEPTYAADFKRRFTFSLDTSKSTAYLQMNSLRAEDTAVYYCAKYPHYYGRSHWYFDVWGQGTLVTVSSGGGGSGGGGSGGGGSDIQMTQSPSSLSASVGDRVTITCSASQDISNYLNWYQQKPGKAPKVLIYFTSSLHSGVPSRFSGSGSGTDFTLTISSLQPEDFATYYCQQYSTVPWTFGQGTKVEIK
4.9	2.7	1.4e-05	2900	hAB9 (scFv, Single chain format; not shown: HA-His6 tag at C-terminus) scFv: EVQLVQSGGGVVQPGGSLRLSCAASGYTFTNYGMNWVRQAPGKGLEWVGWINTYTGEPTYAADFKRRFTFSLDTSKSTAYLQMNSLRAEDTAVYYCAKYPYYYGRSHWYFDVWGQGTLVTVSSGGGGSGGGGSGGGGSDIQLTQSPSSLSASAGDRVTISCSASQDISNYLNWYQQKPGKAPQLLIYFTSSLHSGVPSRFSGSGSGTDFTLTISSLQPEDFATYYCQQYSTVPWTFGQGTKVEIK

The binders below were run against T1, purified recombinant human VEGF165 (assay: SPR (BIAcore), purified scFv over VEGF immobilized on CM5 chip, 35 C).
Procedure: as §1, with “35°” for “25°”
as §2

Kd [nM]	hAB1 Kd/Variant Kd	koff [s⁻¹]	kon [M⁻¹ s⁻¹]	Binder
0.7	59.1	6.2e-05	82800	hAB35 (scFv, Single chain format; not shown: HA-His6 tag at C-terminus) scFv: EVQLVQSGGGVVQPGGSLRLSCAASGYDFTHFGLNWIRQAPGKGPEWVGWINTYTGEPTYAQDFKRRVTFSLDTSKSTAYLQLNSLRAEDTAVYYCAKYPYYYGRSHWYFDVWGQGTLVTVSSGGGGSGGGGSGGGGSDIVMTQSPSTLSASPGERATITCNASQSIGSYLAWYQQKPGQAPKVLIYGASNLASGVPSRFSGSRSGTDFTLTISSLQPEDFAVYYCQQYNSTPWTFGGGTKLEIK
0.8	51.8	4.4e-05	57300	hAB37 (scFv, Single chain format; not shown: HA-His6 tag at C-terminus) scFv: EVQLVQSGGGVVQPGGSLRLSCAASGYNFSHFGLNWLRQAPGKGLEWVGWINTYNGETTYAPDFKRRVTFSLDTSKSTAYLQLNSLRAEDTAVYYCAKYPYYYGRSHWYFDVWGQGTLVTVSSGGGGSGGGGSGGGGSDIVMTQSPSTLSASPGERATITCNASQSIGSYLAWYQQKPGQAPKVLIYGASNLASGVPSRFSGSRSGTDFTLTISSLQPEDFAVYYCQQYNSTPWTFGGGTKLEIK
1.8	23	4.8e-05	28400	hAB39 (scFv, Single chain format; not shown: HA-His6 tag at C-terminus) scFv: EVQLVQSGGGVVQPGGSLRLSCAASGYDFTHFGLNWVRQAPGKGLEWVGWVNTYTGETTYAHEFKRRVTFSLDTSKSTAYLQLNSLRAEDTAVYYCAKYPYYYGRSHWYFDVWGQGTLVTVSSGGGGSGGGGSGGGGSDIVMTQSPSTLSASPGERATITCNASQSIGSYLAWYQQKPGQAPKVLIYGASNLASGVPSRFSGSRSGTDFTLTISSLQPEDFAVYYCQQYNSTPWTFGGGTKLEIK
0.9	46	4.8e-05	50000	hAB38 (scFv, Single chain format; not shown: HA-His6 tag at C-terminus) scFv: EVQLVQSGGGVVQPGGSLRLSCAASGYNFSHFGLNWLRQAPGKGPEWVGWINTYTGEPTYAPEFKRRVTFSLDTSKSTAYLQLNSLRAEDTAVYYCAKYPYYYGRSHWYFDVWGQGTLVTVSSGGGGSGGGGSGGGGSDIVMTQSPSTLSASPGERATITCNASQSIGSYLAWYQQKPGQAPKVLIYGASNLASGVPSRFSGSRSGTDFTLTISSLQPEDFAVYYCQQYNSTPWTFGGGTKLEIK
1.6	25.9	4.7e-05	29300	hAB16 (scFv, Single chain format; not shown: HA-His6 tag at C-terminus) scFv: EVQLVQSGGGVVQPGGSLRLSCAASGYTFTNYGMNWIRQAPGKGLEWVGWINTYTGEPTYAADFKRRVTFSLDTSKSTAYLQLNSLRAEDTAVYYCAKYPYYYGRSHWYFDVWGQGTLVTVSSGGGGSGGGGSGGGGSDIVMTQSPSTLSASPGERATITCNASQSIGSYLAWYQQKPGQAPKVLIYGASNLASGVPSRFSGSRSGTDFTLTISSLQPEDFAVYYCQQYNSTPWTFGGGTKLEIK
0.7	59.1	3.7e-05	47500	hAB36 (scFv, Single chain format; not shown: HA-His6 tag at C-terminus) scFv: EVQLVQSGGGVVQPGGSLRLSCAASGYDLSHYGLNWIRQAPGKGPEWVGWINTYTGEPTYAPDFTRRVTFSLDTSKSTAYLQLNSLRAEDTAVYYCAKYPYYYGRSHWYFDVWGQGTLVTVSSGGGGSGGGGSGGGGSDIVMTQSPSTLSASPGERATITCNASQSIGSYLAWYQQKPGQAPKVLIYGASNLASGVPSRFSGSRSGTDFTLTISSLQPEDFAVYYCQQYNSTPWTFGGGTKLEIK
3.6	11.5	6.2e-05	17100	hAB14 (scFv, Single chain format; not shown: HA-His6 tag at C-terminus) scFv: EVQLVQSGGGVVQPGGSLRLSCAASGYTFTNYGMNWIRQAPGKGLEWVGWINTYTGEPTYAADFKRRVTFSLDTSKSTAYLQLNSLRAEDTAVYYCAKYPYYYGRSHWYFDVWGQGTLVTVSSGGGGSGGGGSGGGGSAIRMTQSPSSVSASVGDTVTIACRASQAIRNDLTWYQQKPGTAPKLLIYGATTLQSGVPSRFSGSGSGTDFTLTISSLQPEDFATYYCQQSSTTPWTFGQGTKVDIK
1.1	37.6	9e-06	8500	hAB7 (scFv, Single chain format; not shown: HA-His6 tag at C-terminus) scFv: EVQLVQSGGGVVQPGGSLRLSCAASGYTFTNYGMNWVRQAPGKGLEWVGWINTYTGEPTYAADFKRRFTFSLDTSKSTAYLQMNSLRAEDTAVYYCAKYPYYYGRSHWYFDVWGQGTLVTVSSGGGGSGGGGSGGGGSDIQMTQSPSSLSASVGDRVTITCSASQDISNYLNWYQQKPGKAPKVLIYFTSSLHSGVPSRFSGSGSGTDFTLTISSLQPEDFATYYCQQYSTVPWTFGQGTKVEIK
1.1	37.6	1.7e-05	15800	hAB8 (scFv, Single chain format; not shown: HA-His6 tag at C-terminus) scFv: EVQLVQSGGGVVQPGGSLRLSCAASGYTFTNYGMNWIRQAPGKGLEWVGWINTYTGEPTYAADFKRRVTFSLDTSKSTAYLQLNSLRAEDTAVYYCAKYPYYYGRSHWYFDVWGQGTLVTVSSGGGGSGGGGSGGGGSDIQMTQSPSSLSASVGDRVTITCSASQDISNYLNWYQQKPGKAPKVLIYFTSSLHSGVPSRFSGSGSGTDFTLTISSLQPEDFATYYCQQYSTVPWTFGQGTKVEIK
3.7	11.2	8.6e-05	23400	hAB15 (scFv, Single chain format; not shown: HA-His6 tag at C-terminus) scFv: EVQLVQSGGGVVQPGGSLRLSCAASGYTFTNYGMNWIRQAPGKGLEWVGWINTYTGEPTYAADFKRRVTFSLDTSKSTAYLQLNSLRAEDTAVYYCAKYPYYYGRSHWYFDVWGQGTLVTVSSGGGGSGGGGSGGGGSDIVMTQSPSTLSASPGERATITCHASQSISTYLAWYQQKPGQAPRVLIYGASNLASGVPNRFSGSGSGTDFTLTISSLQPEDFAVYYCQQYNSAPWTFGGGTKVEIK

Reference: US20040133357A1 (ABMAXIS, published 2004)
